Test results taken from patent US20230129812A1, “COMPOSITIONS AND METHODS FOR TREATING PULMONARY HYPERTENSION” (Acceleron Pharma Inc., priority 2020, published 2023).
Numbering of substitutions follows the chain as printed. In names and notes the source's numbering stands.

T1: GDF8 (Homo sapiens, UniProt O14793)
T1 sequence (O14793 267-375): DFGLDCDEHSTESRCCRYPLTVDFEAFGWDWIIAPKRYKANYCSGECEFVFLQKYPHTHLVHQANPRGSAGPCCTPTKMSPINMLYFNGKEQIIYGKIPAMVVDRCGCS

T2: activin A (Homo sapiens, UniProt P08476)
T2 sequence (P08476 311-426): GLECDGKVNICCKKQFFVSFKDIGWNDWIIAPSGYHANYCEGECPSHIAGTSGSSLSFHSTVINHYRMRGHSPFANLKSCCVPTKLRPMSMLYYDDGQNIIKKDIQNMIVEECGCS

T3: GDF11 (Homo sapiens, UniProt O95390)
T3 sequence (O95390 299-407): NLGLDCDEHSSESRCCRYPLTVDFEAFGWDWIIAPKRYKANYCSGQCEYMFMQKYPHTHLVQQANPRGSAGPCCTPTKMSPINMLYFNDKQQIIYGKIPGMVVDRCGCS

T4: activin B (Homo sapiens, UniProt P09529)
T4 sequence (P09529 293-407): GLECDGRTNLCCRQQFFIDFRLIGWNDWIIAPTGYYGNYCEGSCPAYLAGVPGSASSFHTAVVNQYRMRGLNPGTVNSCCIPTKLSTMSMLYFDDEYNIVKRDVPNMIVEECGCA

B1: ActRIIB(20-134)-hFc: extracellular domain of human ActRIIB (residues 20-134, R64) fused to a human Fc domain with a minimal linker (protein)
chain: GRGEAETRECIYYNANWELERTNQSGLERCEGEQDKRLHCYASWRNSSGTIELVKKGCWLDDFNCYDRQECVATEENPQVYFCCCEGNFCNERFTHLPEAGGPEVTYEPPPTAPTGGGTHTCPPCPAPELLGGPSVFLFPPKPKDTLMISRTPEVTCVVVDVSHEDPEVKFNWYVDGVEVHNAKTKPREEQYNSTYRVVSVLTVLHQDWLNGKEYKCKVSNKALPVPIEKTISKAKGQPREPQVYTLPPSREEMTKNQVSLTCLVKGFYPSDIAVEWESNGQPENNYKTTPPVLDSDGSFFLYSKLTVDKSRWQQGNVFSCSVMHEALHNHYTQKSLSLSPGK
B2: ActRIIB(L79D 20-134)-hFc: ActRIIB amino acids 20-134 with an L79D substitution fused to a human Fc domain (protein)
chain: B1 chain with L60D
B3: ActRIIB(R64K 20-134)-hFc: ActRIIB-Fc variant with R64K substitution, residues 20-134 (protein)
chain: B1 chain with R45K

Columns and labels:
GDF8 [1] = target: T1, GDF8; assay: A-204 reporter gene assay, pGL3(CAGA)12 luciferase; format: cell-based
Description: (§1) An A-204 reporter gene assay was used to evaluate the effects of ActRIIB-Fc proteins and ActRIIB variant Fc fusion polypeptides on signaling by GDF-11 and activin A. Cell line: human rhabdomyosarcoma (derived from muscle). Reporter vector: pGL3(CAGA)12 (described in Dennler et al, 1998, EMBO 17: 3091-3100). The CAGA12 motif is present in TGF-beta responsive genes (e.g., PAI-1 gene), so this vector is of general use for factors signaling through SMADs.
(§2) Day 1: Split A-204 cells into 48-well plate.
(§3) Day 2: A-204 cells transfected with 10 ug pGL3(CAGA)12 or pGL3(CAGA)12(10 ug)+pRLCMV (1 pg) and Fugene.
(§4) Day 3: Add factors (diluted into medium+0.1% BSA). Inhibitors need to be preincubated with factors for 1 hr before adding to cells. Six hrs later, cells were rinsed with PBS and lysed.
(§5) This is followed by a luciferase assay.
As described below, ActRIIB variants were also tested in this assay.
In addition, an A-204 Reporter Gene Assay was used to evaluate the effects of ALK4-Fc:ActRIIB-Fc heterodimer and ActRIIB-Fc:ActRIIB-Fc homodimer on signaling by activin A, activin B, GDF11, GDF8, BMP10, and BMP9. Cell line: Human Rhabdomyosarcoma (derived from muscle). Reporter vector: pGL3(CAGA)12 (as described in Dennler et al, 1998, EMBO 17: 3091-3100). The CAGA12 motif is present in TGFβ responsive genes (PAI-1 gene), so this vector is of general use for factors signaling through Smads. An exemplary A-204 Reporter Gene Assay is outlined below. • Day 1: Split A-204 cells into 48-well plate. • Day 2: A-204 cells transfected with 10 ug pGL3(CAGA)12 or pGL3(CAGA)12(10 ug)+pRLCMV (1 ug) and Fugene. • Day 3: Add factors (diluted into medium+0.1% BSA). Inhibitors need to be pre-incubated with Factors for about one hr before adding to cells. About six hrs later, cells are rinsed with PBS and then lysed.
Following the above steps, a Luciferase assay was performed.

activin A [2] = target: T2, activin A; assay: Biacore assay, ActRIIB-Fc captured with anti-hFc antibody, ligand injected (Example 8); format: binding
Description: (§6) Binding of certain ActRIIB-Fc proteins and ActRIIB variant Fc fusion polypeptides to ligands was tested in a Biacore™ assay.
(§7) The ActRIIB-Fc variants or wild-type protein were captured onto the system using an anti-hFc antibody. Ligands were injected and flowed over the captured receptor proteins.

GDF8 [3] = target: T1, GDF8; assay: as above; format: binding; details: for Koff: GDF8, Table 10
Description: as §6, §7

GDF11 [4] = target: T3, GDF11; assay: as above; format: binding; details: for Koff: GDF11, Table 10
Description: as §6, §7

activin A [5] = target: T2, activin A; assay: Biacore ligand affinity of ActRIIB-hFc forms, steady-state affinity fit; format: binding; details: Table 12; Kd by steady-state affinity fit; read-out: Activin A (Kd e−11)
Description: (§8) Affinities of several ligands for ActRIIB(25-131)-hFc and its full-length counterpart ActRIIB(20-134)-hFc were evaluated in vitro with a Biacore™ instrument, and the results are summarized in Table 8 below. Kd values were obtained by steady-state affinity fit due to very rapid association and dissociation of the complex, which prevented accurate determination of kon and koff. ActRIIB(25-131)-hFc bound, for example, activin A, activin B, and GDF11 with high affinity.
(§9) The affinity of ActRIIB variants and other ActRIIB-hFc proteins for several ligands was evaluated in vitro with a Biacore™ instrument. Kd values were obtained by steady-state affinity fit due to the very rapid association and dissociation of the complex, which prevented accurate determination of kon and koff.

activin B = target: T4, activin B; assay: as above; format: binding; details: Table 12; Kd by steady-state affinity fit; read-out: Activin B (Kd e−11)
Description: as §8, §9

GDF11 [6] = target: T3, GDF11; assay: as above; format: binding; details: Table 12; Kd by steady-state affinity fit; read-out: GDF11 (Kd e−11)
Description: as §8, §9

activin A [7] = target: T2, activin A; assay: A-204 reporter gene assay, pGL3(CAGA)12 luciferase; format: cell-based; details: for inhibition of activin A signaling: A-204 reporter gene assay; for Activin Inhibition Activity: Table 9, cell-based A-204 assay
Description: as §1, §2, §3, §4, §5
(§10) Activity of ActRIIB-Fc proteins and ActRIIB variant Fc fusion polypeptides was tested in a cell-based assay as described above. Some variants were tested in different C-terminal truncation constructs. As discussed above, truncations of five or fifteen amino acids caused reduction in activity. […]

GDF11 [8] = target: T3, GDF11; assay: A-204 reporter gene assay, pGL3(CAGA)12 luciferase; format: cell-based; details: for inhibition of GDF11 signaling: A-204 reporter gene assay; for GDF11 Inhibition Activity: Table 9, cell-based A-204 assay
Description: as §1, §2, §3, §4, §5, §10

[9] = cell-free Biacore assay, Example 8

Row | Molecule | inhibition of GDF8 signaling (GDF8 [1]) | Koff (activin A [2]; Activin A, Table 10) | Koff (GDF8 [3]) | Koff (GDF11 [4]) | Kd (activin A [5]) | Kd (activin B) | Kd (GDF11 [6]) | inhibition of activin A signaling (activin A [7]) | Activin Inhibition Activity (activin A [7]) | inhibition of GDF11 signaling (GDF11 [8]) | GDF11 Inhibition Activity (GDF11 [8]) | KD (M) (activin A [2]; Activin A, Table 10) | activin A binding (activin A [2]; [9]) | myostatin (GDF8) binding (GDF8 [3]; [9]) | GDF11 binding (GDF11 [4]; [9])
1 | B1 | potent inhibitor | 0.000159 s⁻¹ | 3.45e-05 s⁻¹ | 0.000113 s⁻¹ | 0.016 nM | 0.012 nM | 0.036 nM | potent inhibitor | +++ (Good (wild-type) activity (roughly 1 × 10^−8 KI)) | potent inhibitor | +++ (Good (wild-type) activity (roughly 1 × 10^−8 KI)) |  |  |  | 
2 | B2 |  |  | 0.00083 s⁻¹ | 0.000439 s⁻¹ | 13.5 nM | 0.788 nM | 0.123 nM | substantial loss of activin A inhibition | + (Poor activity (roughly 1 × 10^−6 KI)) | almost wild-type inhibition of GDF11 | +++ (Good (wild-type) activity (roughly 1 × 10^−8 KI)) | Low binding | markedly decreased (non-quantifiable) binding to activin A | retains myostatin and GDF11 binding | retains myostatin and GDF11 binding
3 | B3 |  | 0.000325 s⁻¹ | 4.71e-05 s⁻¹ | 2.41e-05 s⁻¹ |  |  |  |  | +++ (Good (wild-type) activity (roughly 1 × 10^−8 KI)) |  | +++ (Good (wild-type) activity (roughly 1 × 10^−8 KI)) |  |  |  | 
